Laboratory results published in publication PMC2765514 (Biochemistry, 2009).

How the values were obtained:
[1] = biological target: T1, soluble PDZK1 purified from bacteria (human, UniProt Q5T2W1 1-519); experiment: pull-down
T1 sequence (looked up): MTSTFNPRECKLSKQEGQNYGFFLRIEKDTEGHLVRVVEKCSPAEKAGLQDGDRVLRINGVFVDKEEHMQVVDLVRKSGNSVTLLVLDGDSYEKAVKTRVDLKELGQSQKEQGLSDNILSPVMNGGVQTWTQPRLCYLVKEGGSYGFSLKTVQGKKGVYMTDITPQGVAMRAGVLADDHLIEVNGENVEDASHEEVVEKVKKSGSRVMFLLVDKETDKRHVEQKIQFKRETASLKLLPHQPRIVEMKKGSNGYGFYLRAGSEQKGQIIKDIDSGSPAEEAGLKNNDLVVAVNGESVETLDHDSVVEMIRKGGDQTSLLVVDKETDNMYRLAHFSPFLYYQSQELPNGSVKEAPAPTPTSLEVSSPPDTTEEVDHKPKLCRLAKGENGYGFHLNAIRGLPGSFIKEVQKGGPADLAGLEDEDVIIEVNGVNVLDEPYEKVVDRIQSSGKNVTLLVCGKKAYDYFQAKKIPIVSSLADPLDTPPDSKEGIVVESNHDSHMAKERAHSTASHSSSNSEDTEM

[2] = biological target: T2, soluble PDZK1 ΔDTEM purified from bacteria (human, UniProt Q5T2W1 1-515); experiment: pull-down
T2 sequence (looked up): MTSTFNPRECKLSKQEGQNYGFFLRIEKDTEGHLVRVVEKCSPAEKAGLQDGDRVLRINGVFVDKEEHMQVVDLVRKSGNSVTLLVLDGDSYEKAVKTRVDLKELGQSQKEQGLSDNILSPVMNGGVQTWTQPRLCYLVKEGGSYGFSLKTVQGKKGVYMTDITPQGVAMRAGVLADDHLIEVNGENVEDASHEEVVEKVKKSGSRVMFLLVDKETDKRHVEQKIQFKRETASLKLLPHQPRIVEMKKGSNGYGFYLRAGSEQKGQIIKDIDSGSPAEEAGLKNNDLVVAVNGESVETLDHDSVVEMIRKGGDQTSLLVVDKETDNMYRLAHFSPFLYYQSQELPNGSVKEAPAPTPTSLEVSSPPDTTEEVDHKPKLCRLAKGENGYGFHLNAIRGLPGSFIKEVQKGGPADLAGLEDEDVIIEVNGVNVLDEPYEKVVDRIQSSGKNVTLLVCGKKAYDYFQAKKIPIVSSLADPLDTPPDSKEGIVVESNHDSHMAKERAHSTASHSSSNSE

[3] = biological target: the molecule itself; experiment: cross-linking

B1: GST-PDZK1-tail (domain or fragment, human, UniProt Q5T2W1 458-519, looked up)
chain: KAYDYFQAKKIPIVSSLADPLDTPPDSKEGIVVESNHDSHMAKERAHSTASHSSSNSEDTEM
B1: binds [1]; binds [2].

B2: PDZK1 PDZs 3 and 4 to the end of the protein (amino acids 227–515), soluble (domain or fragment, human, UniProt Q5T2W1 227-515, looked up)
chain: FKRETASLKLLPHQPRIVEMKKGSNGYGFYLRAGSEQKGQIIKDIDSGSPAEEAGLKNNDLVVAVNGESVETLDHDSVVEMIRKGGDQTSLLVVDKETDNMYRLAHFSPFLYYQSQELPNGSVKEAPAPTPTSLEVSSPPDTTEEVDHKPKLCRLAKGENGYGFHLNAIRGLPGSFIKEVQKGGPADLAGLEDEDVIIEVNGVNVLDEPYEKVVDRIQSSGKNVTLLVCGKKAYDYFQAKKIPIVSSLADPLDTPPDSKEGIVVESNHDSHMAKERAHSTASHSSSNSE
In the case of B2, the “stoichiometry N” value [3] is reported as 2.
